Data from patent US20230029453A1.

B1: P73 9-mer … (TP53 G266E) (peptide)
peptide: LLERNSFEV
modifications: here or on the partner: biotinylated heavy chain
B2: P58 9-mer … (AR Q903H) (peptide)
peptide: HVPKILSGK
modifications: here or on the partner: biotinylated heavy chain
B3: P19 9-mer … (TMEM222-LOC644061 fusion) (peptide)
peptide: IPVLTRWPL
modifications: here or on the partner: biotinylated heavy chain
B4: P22 9-mer … (SLC45A3-ELK4 fusion) (peptide)
peptide: QLIAMDSAI
modifications: here or on the partner: biotinylated heavy chain
B5: P61 9-mer … (FOXA1.p.R261G) (peptide)
peptide: CYLGRQKRF
modifications: here or on the partner: biotinylated heavy chain
B6: P76 9-mer … (AR-V3) (peptide)
peptide: YCMAAPMGL
modifications: here or on the partner: biotinylated heavy chain
B7: P48 9-mer … (AR.p.H875Y) (peptide)
peptide: YQFTFDLLI
modifications: here or on the partner: biotinylated heavy chain
B8: Exchange control peptide … (peptide)
peptide: LIYRRRLMK
modifications: not checked
B9: P98 9-mer … (TP53 R213D frameshift) (peptide)
peptide: IVWWCPMSR
modifications: here or on the partner: biotinylated heavy chain
B10: Exchange control peptide … (peptide)
peptide: NPKASLLSL
modifications: not checked
B11: P46 9-mer … (TP53 R213D frameshift) (peptide)
peptide: CPMSRLRLA
modifications: here or on the partner: biotinylated heavy chain
B12: P60 9-mer … (FOXA1.p.F266L) (peptide)
peptide: YLRRQKRLK
modifications: here or on the partner: biotinylated heavy chain
B13: P17 9-mer … (MSMB-NOCA4 fusion) (peptide)
peptide: RAVRRMNTF
modifications: here or on the partner: biotinylated heavy chain
B14: P87 9-mer … (AR-Intron) (peptide)
peptide: FLFLLLPLS
modifications: here or on the partner: biotinylated heavy chain
B15: P82 9-mer … (AR-V7) (peptide)
peptide: RVGNCKHLK
modifications: here or on the partner: biotinylated heavy chain
B16: P97 9-mer … (FOXRED2-TXN2 fusion) (peptide)
peptide: LMAQRLLLR
modifications: here or on the partner: biotinylated heavy chain
B17: P56 9-mer … (SPOP F102C) (peptide)
peptide: RAKCKFSIL
modifications: here or on the partner: biotinylated heavy chain

Tests used:
Assay in all cases: UV peptide exchange; HLA class I ELISA
Conditions in all cases: remark: other sources report otherwise
HLA-B*08:01 (human) = biological target: HLA-B*08:01 (human)
HLA-B*07:02 (human) = biological target: HLA-B*07:02 (human)
HLA-A*24:02 (human) = biological target: HLA-A*24:02 (human)
HLA-A*03:01 (human) = biological target: HLA-A*03:01 (human)
HLA-A*02:01 (human) = biological target: HLA-A*02:01 (human)
HLA-A*01:01 (human) = biological target: HLA-A*01:01 (human)
HLA-B*27:05 (human) = biological target: HLA-B*27:05 (human)

| Binder | exchange rate with Pos (HLA-B*08:01 (human)) [%] | exchange rate with Pos (HLA-B*07:02 (human)) [%] | exchange rate with Pos (HLA-A*24:02 (human)) [%] | exchange rate with Pos (HLA-A*03:01 (human)) [%] | exchange rate with Pos (HLA-A*02:01 (human)) [%] | exchange rate with Pos (HLA-A*01:01 (human)) [%] | also measured |
| --- | --- | --- | --- | --- | --- | --- | --- |
| B1 | 2.6 | 8.7 | 0.5 | 3.5 | 89.2 |  |  |
| B2 | 5.3 |  | 0.2 | 32.5 | 11.8 | 2.5 |  |
| B3 | 14.5 | 91.3 | 0.1 | 4.1 | 8.2 | 5.2 |  |
| B4 | 3.9 | 8.3 | 0 | 4.8 | 46.9 | 4.4 | Average % (HLA-B*27:05 (human)): 4.3%; Exch I (%) (HLA-B*27:05 (human)): 4.7%; Exch II (%) (HLA-B*27:05 (human)): 3.9%; Average % (HLA-B*08:01 (human)): 7.9%; Exch I (%) (HLA-B*08:01 (human)): 8%; Exch II (%) (HLA-B*08:01 (human)): 7.8%; Average % (HLA-B*07:02 (human)): 12%; Exch I (%) (HLA-B*07:02 (human)): 12.2%; Exch II (%) (HLA-B*07:02 (human)): 11.8%; Average % (HLA-A*01:01 (human)): 5%; Exch I (%) (HLA-A*01:01 (human)): 5%; Exch II (%) (HLA-A*01:01 (human)): 4.9%; Average % (HLA-A*24:02 (human)): 4.5%; Exch I (%) (HLA-A*24:02 (human)): 4.8%; Exch II (%) (HLA-A*24:02 (human)): 4.1%; Average % (HLA-A*02:01 (human)): 41.5%; Exch I (%) (HLA-A*02:01 (human)): 40%; Exch II (%) (HLA-A*02:01 (human)): 43.1% |
| B5 | 3.6 |  | 90.3 |  | 5.8 | 1.7 |  |
| B6 |  | 91.5 | -0.5 | 6 | 85.9 | 0.1 |  |
| B7 |  | 12.8 | 0.1 | 4.4 | 99.3 | 4.3 |  |
| B8 |  |  |  |  |  |  | Average % (HLA-B*07:02 (human)): 13.7%; Exch I (%) (HLA-B*07:02 (human)): 13%; Exch II (%) (HLA-B*07:02 (human)): 14.3% |
| B9 | 2.4 | 6.7 | -0.1 | 51.1 | 7.9 | 2.5 |  |
| B10 |  |  |  |  |  |  | Average % (HLA-A*01:01 (human)): 6.5%; Exch I (%) (HLA-A*01:01 (human)): 7.4%; Exch II (%) (HLA-A*01:01 (human)): 5.6% |
| B11 | 14.5 | 64.8 | -0.4 | 10.3 | 14.4 | 2.4 |  |
| B12 | 10.2 | 6.1 | 0.9 | 36.6 | 7.9 | 3.1 |  |
| B13 | 9 | 38.7 | 0.1 | 3.8 |  | 4.9 |  |
| B14 | 3.1 | 5 | 0.2 | 2.4 | 64 | 1.1 |  |
| B15 | 1.4 | 12.9 | -0.1 | 58.1 | 6.3 | 1.5 |  |
| B16 | 2.7 | 7 | 0.1 | 39 | 4.6 | 2.5 |  |
| B17 | 38 | 82.5 | 0.5 | 6.8 | 8.4 | 2.6 |  |
